Legend:
Test in all cases: Kinase Profiling Assay
Format in all cases: biochemical
Details in all cases: for % activity: 100 μM
SRPK2(h) = SRPK2(h) (Homo sapiens, UniProt P78362)
PKCδ(h) = PKCδ(h) (Homo sapiens, UniProt Q05655)
MAPKAP-K2(h) = MAPKAP-K2(h) (Homo sapiens, UniProt P49137)
ZIPK(h) = ZIPK(h) (Homo sapiens, UniProt O43293)
Rsk4(h) = Rsk4(h) (Homo sapiens, UniProt Q9UK32)
PAK4(h) = PAK4(h) (Homo sapiens, UniProt O96013)
Haspin(h) = molecular target: T1, Haspin(h) (Homo sapiens, UniProt Q8TF76)
T1 sequence (Q8TF76 1-798): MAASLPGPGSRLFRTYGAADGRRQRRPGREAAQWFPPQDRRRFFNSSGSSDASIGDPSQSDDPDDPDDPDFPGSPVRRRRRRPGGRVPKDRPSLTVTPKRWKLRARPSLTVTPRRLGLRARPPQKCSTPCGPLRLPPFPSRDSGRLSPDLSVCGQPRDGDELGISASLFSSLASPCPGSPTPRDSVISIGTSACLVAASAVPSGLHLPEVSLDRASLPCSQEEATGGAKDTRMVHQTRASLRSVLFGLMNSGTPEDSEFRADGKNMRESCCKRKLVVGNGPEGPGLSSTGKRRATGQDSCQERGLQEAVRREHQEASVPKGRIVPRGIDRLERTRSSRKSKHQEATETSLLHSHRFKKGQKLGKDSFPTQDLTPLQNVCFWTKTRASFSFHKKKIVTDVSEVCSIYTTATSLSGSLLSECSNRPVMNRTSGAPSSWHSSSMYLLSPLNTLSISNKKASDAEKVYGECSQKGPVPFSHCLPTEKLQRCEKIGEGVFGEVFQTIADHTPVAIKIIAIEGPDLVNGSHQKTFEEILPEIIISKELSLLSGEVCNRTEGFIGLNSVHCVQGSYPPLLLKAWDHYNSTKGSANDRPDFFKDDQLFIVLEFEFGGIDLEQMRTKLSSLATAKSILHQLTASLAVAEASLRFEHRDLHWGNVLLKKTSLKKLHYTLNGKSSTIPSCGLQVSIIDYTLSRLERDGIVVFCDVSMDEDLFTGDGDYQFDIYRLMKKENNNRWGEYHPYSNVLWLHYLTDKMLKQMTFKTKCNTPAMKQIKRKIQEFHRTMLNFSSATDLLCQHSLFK

IRAK4(h) = molecular target: T2, IRAK4(h) (Homo sapiens, UniProt Q9NWZ3)
T2 sequence (Q9NWZ3 1-460): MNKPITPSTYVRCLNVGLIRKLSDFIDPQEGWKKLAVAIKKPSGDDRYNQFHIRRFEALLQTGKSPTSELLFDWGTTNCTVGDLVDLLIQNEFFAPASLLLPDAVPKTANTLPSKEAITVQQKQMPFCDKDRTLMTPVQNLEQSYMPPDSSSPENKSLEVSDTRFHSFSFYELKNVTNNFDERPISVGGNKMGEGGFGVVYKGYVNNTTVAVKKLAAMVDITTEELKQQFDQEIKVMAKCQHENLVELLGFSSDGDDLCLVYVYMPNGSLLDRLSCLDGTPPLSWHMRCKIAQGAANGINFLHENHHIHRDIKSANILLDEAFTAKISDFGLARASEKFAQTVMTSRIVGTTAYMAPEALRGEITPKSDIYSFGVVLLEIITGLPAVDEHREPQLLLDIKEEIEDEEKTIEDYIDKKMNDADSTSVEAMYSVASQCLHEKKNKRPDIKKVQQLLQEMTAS

ARK5(h) = molecular target: T3, ARK5(h) (Homo sapiens, UniProt O60285)
T3 sequence (O60285 1-661): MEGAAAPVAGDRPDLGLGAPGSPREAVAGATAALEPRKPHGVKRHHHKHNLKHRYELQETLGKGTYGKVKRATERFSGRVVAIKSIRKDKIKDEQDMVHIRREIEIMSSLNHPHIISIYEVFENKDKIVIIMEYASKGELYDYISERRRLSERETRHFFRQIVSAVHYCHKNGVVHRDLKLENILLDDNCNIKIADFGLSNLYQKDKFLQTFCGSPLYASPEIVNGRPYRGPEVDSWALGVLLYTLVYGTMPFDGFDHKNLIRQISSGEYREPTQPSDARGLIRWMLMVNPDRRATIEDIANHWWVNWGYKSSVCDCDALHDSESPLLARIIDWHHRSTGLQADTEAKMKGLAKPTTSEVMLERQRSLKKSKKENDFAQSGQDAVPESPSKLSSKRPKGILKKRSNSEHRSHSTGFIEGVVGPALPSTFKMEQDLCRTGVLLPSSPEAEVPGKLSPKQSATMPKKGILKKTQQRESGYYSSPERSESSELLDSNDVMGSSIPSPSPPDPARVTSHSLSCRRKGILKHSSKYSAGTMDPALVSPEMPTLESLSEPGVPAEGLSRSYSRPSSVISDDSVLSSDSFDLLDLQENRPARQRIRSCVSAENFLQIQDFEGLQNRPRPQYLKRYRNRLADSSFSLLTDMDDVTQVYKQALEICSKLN

FGFR3(h) = FGFR3(h) (Homo sapiens, UniProt P22607)
Sequence of FGFR3(h) (P22607 23-806): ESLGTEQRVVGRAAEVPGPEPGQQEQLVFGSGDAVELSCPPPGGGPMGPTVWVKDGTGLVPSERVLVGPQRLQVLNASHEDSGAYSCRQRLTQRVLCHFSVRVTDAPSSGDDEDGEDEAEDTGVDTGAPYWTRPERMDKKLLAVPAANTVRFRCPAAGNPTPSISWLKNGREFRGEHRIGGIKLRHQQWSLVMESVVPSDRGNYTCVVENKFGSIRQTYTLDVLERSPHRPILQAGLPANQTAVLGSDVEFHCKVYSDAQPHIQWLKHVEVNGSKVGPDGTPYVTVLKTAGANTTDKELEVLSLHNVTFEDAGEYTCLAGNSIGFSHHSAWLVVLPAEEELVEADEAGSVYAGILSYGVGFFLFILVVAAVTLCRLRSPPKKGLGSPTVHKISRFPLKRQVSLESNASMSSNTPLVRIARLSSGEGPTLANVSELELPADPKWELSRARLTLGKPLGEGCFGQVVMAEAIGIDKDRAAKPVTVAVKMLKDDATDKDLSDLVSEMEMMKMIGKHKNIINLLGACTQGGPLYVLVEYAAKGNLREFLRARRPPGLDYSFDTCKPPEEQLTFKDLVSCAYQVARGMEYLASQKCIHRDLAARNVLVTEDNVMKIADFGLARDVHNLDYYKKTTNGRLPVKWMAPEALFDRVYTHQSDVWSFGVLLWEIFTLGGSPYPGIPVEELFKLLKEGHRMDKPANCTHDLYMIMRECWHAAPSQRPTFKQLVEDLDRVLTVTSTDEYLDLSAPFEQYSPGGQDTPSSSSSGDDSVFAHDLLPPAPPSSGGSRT

Sequence of Rsk4(h) (Q9UK32 whole entry): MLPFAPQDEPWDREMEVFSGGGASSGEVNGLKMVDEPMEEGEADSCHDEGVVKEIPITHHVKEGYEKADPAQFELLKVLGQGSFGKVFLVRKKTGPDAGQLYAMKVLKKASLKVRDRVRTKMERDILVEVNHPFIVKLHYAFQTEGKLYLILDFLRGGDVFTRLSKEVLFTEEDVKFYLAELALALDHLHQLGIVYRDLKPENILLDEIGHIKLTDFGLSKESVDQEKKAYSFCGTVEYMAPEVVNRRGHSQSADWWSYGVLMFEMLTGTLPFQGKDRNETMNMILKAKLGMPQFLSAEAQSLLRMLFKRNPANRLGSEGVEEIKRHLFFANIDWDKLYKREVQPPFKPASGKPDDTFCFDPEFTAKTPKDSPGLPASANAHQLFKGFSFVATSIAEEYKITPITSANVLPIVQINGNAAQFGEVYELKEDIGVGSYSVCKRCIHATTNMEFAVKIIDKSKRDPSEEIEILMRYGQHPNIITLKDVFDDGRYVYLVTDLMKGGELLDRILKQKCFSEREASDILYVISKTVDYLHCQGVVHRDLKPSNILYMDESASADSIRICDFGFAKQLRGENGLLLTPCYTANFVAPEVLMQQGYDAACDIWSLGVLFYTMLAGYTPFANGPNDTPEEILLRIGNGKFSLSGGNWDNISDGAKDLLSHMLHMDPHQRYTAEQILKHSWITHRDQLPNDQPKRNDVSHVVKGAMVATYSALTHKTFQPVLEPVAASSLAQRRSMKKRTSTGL
Sequence of PAK4(h) (O96013 whole entry): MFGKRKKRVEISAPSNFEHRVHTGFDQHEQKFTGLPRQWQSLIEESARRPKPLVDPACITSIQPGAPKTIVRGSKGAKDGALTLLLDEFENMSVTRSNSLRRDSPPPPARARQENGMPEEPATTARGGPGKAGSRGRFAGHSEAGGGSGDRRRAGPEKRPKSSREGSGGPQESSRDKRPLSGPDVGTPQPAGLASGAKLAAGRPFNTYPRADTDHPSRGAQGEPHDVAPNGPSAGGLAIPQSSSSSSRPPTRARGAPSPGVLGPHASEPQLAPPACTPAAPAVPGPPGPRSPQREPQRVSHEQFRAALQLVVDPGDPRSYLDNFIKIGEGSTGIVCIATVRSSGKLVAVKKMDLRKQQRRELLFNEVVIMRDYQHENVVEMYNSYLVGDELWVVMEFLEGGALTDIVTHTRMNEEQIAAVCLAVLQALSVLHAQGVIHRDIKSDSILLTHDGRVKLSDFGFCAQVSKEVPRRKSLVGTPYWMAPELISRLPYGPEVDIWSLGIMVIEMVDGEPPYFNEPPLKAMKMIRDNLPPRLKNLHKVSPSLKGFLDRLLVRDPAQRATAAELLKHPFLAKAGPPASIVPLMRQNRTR
Sequence of MAPKAP-K2(h) (P49137 whole entry): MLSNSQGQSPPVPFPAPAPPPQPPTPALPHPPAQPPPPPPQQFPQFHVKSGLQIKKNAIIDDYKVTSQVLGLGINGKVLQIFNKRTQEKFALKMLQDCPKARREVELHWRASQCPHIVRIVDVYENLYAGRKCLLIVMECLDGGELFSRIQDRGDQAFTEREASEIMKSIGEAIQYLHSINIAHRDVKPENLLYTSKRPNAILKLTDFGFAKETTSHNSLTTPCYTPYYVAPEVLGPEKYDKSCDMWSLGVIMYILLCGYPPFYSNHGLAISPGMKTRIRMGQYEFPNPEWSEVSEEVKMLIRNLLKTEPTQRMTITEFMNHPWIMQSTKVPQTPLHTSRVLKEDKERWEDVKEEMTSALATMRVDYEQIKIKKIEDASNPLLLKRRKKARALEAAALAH
Sequence of ZIPK(h) (O43293 whole entry): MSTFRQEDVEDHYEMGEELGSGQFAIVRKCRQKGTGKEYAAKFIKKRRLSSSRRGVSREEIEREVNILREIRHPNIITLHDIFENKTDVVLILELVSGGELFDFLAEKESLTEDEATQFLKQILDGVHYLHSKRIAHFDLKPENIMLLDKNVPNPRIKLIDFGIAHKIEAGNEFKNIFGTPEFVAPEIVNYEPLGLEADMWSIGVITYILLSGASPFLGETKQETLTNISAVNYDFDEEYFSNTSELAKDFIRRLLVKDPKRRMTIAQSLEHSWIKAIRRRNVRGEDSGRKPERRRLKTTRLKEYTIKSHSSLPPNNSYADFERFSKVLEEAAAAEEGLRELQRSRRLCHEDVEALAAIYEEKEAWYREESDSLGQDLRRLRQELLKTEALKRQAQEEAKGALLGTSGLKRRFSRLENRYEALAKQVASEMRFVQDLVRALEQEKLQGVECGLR
Sequence of PKCδ(h) (Q05655 whole entry): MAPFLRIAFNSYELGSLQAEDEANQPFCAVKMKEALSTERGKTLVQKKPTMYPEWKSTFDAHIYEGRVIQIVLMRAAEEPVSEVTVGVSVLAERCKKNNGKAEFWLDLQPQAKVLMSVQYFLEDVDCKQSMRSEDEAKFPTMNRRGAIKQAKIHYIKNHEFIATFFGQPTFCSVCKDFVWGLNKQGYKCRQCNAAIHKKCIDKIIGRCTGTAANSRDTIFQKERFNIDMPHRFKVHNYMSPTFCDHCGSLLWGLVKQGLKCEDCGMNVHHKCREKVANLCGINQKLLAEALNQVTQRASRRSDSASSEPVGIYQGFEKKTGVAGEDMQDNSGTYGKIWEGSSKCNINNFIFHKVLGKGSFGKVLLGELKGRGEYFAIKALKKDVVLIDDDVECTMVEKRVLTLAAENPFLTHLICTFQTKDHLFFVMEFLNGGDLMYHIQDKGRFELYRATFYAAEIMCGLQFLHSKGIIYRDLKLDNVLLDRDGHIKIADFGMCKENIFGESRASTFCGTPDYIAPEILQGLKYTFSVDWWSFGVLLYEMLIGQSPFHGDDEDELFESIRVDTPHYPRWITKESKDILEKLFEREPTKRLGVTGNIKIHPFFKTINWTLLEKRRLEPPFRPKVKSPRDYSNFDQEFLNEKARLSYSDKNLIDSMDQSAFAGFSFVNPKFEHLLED
Sequence of SRPK2(h) (P78362 whole entry): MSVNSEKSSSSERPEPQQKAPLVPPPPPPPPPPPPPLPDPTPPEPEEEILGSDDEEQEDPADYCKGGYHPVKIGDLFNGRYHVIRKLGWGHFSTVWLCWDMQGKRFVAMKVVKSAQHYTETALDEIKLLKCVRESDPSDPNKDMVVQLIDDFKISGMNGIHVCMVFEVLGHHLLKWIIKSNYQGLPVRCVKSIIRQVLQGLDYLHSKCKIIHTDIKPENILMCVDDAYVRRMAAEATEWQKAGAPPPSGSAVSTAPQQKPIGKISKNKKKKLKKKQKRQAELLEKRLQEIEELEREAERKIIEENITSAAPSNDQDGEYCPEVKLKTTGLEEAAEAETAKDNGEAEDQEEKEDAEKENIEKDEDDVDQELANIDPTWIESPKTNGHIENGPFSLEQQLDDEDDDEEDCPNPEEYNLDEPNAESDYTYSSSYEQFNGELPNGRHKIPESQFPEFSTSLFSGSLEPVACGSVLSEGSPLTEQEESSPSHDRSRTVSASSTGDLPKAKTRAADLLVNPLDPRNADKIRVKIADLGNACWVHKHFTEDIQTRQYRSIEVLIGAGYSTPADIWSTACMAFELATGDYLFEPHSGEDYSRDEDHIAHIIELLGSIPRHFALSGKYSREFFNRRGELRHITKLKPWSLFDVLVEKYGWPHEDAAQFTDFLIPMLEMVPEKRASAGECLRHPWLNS

Substance	% activity (SRPK2(h))	% activity (PKCδ(h))	% activity (MAPKAP-K2(h))	% activity (ZIPK(h))	% activity (Rsk4(h))	% activity (PAK4(h))	% activity (Haspin(h))	% activity (IRAK4(h))	% activity (ARK5(h))	% activity (FGFR3(h))	activity at 100 µM (SRPK2(h))	activity at 100 µM (PKCδ(h))	activity at 100 µM (MAPKAP-K2(h))	activity at 100 µM (ZIPK(h))	activity at 100 µM (Rsk4(h))	activity at 100 µM (PAK4(h))	activity at 100 µM (Haspin(h))	activity at 100 µM (IRAK4(h))	activity at 100 µM (ARK5(h))	activity at 100 µM (FGFR3(h))
YARAAARQARAKALNRQLGVA (Mammalian) [MMI-0200]	100%	101%	35%	67%	125%	98%	71%	110%	93%	208%										
H-YARAAARQARAKALARQLGVAA-OH [MMI-0100]											92%	100%	19%	80%	99%	92%	127%	100%	108%	73%
HRRIKAWLKKIKALARQLGVAA (Mammalian) [MMI-0500]	80%	61%	9%	1%	29%	86%	25%	3%	20%	10%										
